In the assay the target is T1, A*23:01/PHOX2B (human, UniProt P61769 21-119, limits assumed).
T1 construct: The preparation of this complex is not described; also called HLA-A*23:01/PHOX2B complex
The assay is described as follows: SPR.

Among the data in patent US20260243766A1 (CHILDREN S HOSPITAL OF PHILADELPHIA, published 2026) are Kd values, retold here.

In general, Kd refers to the free concentration of one partner at which half of the binding sites on the other are occupied at equilibrium, for simple one-to-one binding. The low end stands for a tighter complex, the high end for a looser complex.

T1 sequence (P61769 21-119 limits assumed, chain 3 of 2, other chains not shown): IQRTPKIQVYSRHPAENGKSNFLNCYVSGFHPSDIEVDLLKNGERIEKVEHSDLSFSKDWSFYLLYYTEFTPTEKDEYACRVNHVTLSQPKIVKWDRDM

B1: 10LH single-chain antibody fragment (Clone 10 (RU141-10) scFv) (scFv)
scFv: SRNGGDGQSVLTQPPSVSVSPGQTASITCSGDSLGNKYACWYQQKPGQSPVLVIYQDSKRPSGIPERFSGSNSGNTATLTISGTQAMDEADYYCQAWDSSRGYTVVFGTGTKVTVSSQTGGSGGGGSGGGGSGGGGSEVQLLESGGGLVQPGGSLRLSCAASGFTFDSYAMSWVRQAPGKGLEWVSAISGYGGSTYYADSVKGRFTISRDNSKNTLYLQMNSLRAEDTAVYYCAKYTYFLDAFDIWGQGTMVTVSSS
notes: also called Clone 10LH; scFV 10LH
B1 yielded a Kd of about 20 µM.
